Source: US10226417B2, “Drug delivery systems and applications” (priority 2011, dated 2019)
≈ marks a conversion by molar mass, not a printed value. Read-outs that look alike come from different tables or passages of the source.

Tests used:
[1] = cited from earlier work
[2] = cited from earlier work; remark: listed apart in the source
[3] = Circular dichroism analysis of released protein; type: physicochemical; settings: protein released from O-LA-SG into PBS, sample at day 40
Protocol: At day 40 a sample of the PBS solution was tested be circular dichroism CD analysis to monitor for any changes in protein structure.

[4] = Isoelectric focusing (IEF) of ovalbumin during processing; type: physicochemical
Protocol: Samples of O-LA were prepared as in Example 5. Samples at each step of the process were collected and analyzed by Isoelectric focusing (IEF) which measures the isoelectric point (pI) of the protein. A shift in pI of more than 0.2 is indicative of a single deamidation reaction. All samples had pI values that indicated no deamidation had occurred. The same samples were analyzed by ELISA. The ELISA tests indicated no denaturation of the epitope had occurred.

[5] = 1-octanol/water (pH 7.4; buffer solution)

## CCCCCCCCCCCC(=O)O [dodecanoic]
[1]; [5]
  log P: 4.77
[2]; value is for the methyl ester of the acid named in the row
  Methyl ester solubility: 4.8 µg/mL
[2]
  Solubility in water at 20° C.: 55 µg/mL (≈ 275 µM)

## CCCCCCCCCC(=O)O [decanoic]
[1]; pH 7.4
  log P: 3.75

## CCCCCCCCCCCCCCCCCC(=O)OC [methyl stearate]
[1]; [5]
  log P: 8.43

## CCCCCCCCCCCCCCCC(=O)OC [methyl palmitate]
[1]; [5]
  log P: 7.41

## CCCCCCCCCCCCCC(=O)O [tetradecanoic]
[2]
  Solubility in water at 20° C.: 20 µg/mL (≈ 87.6 µM)

B1: ovalbumin: protein albumin used to model a water soluble therapeutic agent protein (protein, UniProt P01012 2-386, looked up)
Ovalbumin: GSIGAASMEFCFDVFKELKVHHANENIFYCPIAIMSALAMVYLGAKDSTRTQINKVVRFDKLPGFGDSIEAQCGTSVNVHSSLRDILNQITKPNDVYSFSLASRLYAEERYPILPEYLQCVKELYRGGLEPINFQTAADQARELINSWVESQTNGIIRNVLQPSSVDSQTAMVLVNAIVFKGLWEKAFKDEDTQAMPFRVTEQESKPVQMMYQIGLFRVASMASEKMKILELPFASGTMSMLVLLPDEVSGLEQLESIINFEKLTEWTSSNVMEERKIKVYLPRMKMEEKYNLTSVLMAMGITDVFSSSANLSGISSAESLKISQAVHAAHAEINEAGREVVGSAEAGVDAASVSEEFRADHPFLFCIKHIATNAVLFFGRCVSP
[3]
  change in protein structure by circular dichroism: no wavelength shift

B2: Ground Albumin powder: ovalbumin ground to a fine powder, process sample (protein, UniProt P01012 2-386, looked up)
Ovalbumin: GSIGAASMEFCFDVFKELKVHHANENIFYCPIAIMSALAMVYLGAKDSTRTQINKVVRFDKLPGFGDSIEAQCGTSVNVHSSLRDILNQITKPNDVYSFSLASRLYAEERYPILPEYLQCVKELYRGGLEPINFQTAADQARELINSWVESQTNGIIRNVLQPSSVDSQTAMVLVNAIVFKGLWEKAFKDEDTQAMPFRVTEQESKPVQMMYQIGLFRVASMASEKMKILELPFASGTMSMLVLLPDEVSGLEQLESIINFEKLTEWTSSNVMEERKIKVYLPRMKMEEKYNLTSVLMAMGITDVFSSSANLSGISSAESLKISQAVHAAHAEINEAGREVVGSAEAGVDAASVSEEFRADHPFLFCIKHIATNAVLFFGRCVSP
modifications: ground powder
notes: ovalbumin ground to a fine powder, process sample
[4]; Sample 1
  IEF data Ovalbumin A1 %: 81.7%
  IEF data Ovalbumin A1 pI: 5.10
  IEF data Ovalbumin A2 + A3 %: 18.3%
  IEF data Ovalbumin A2 + A3 pI: 5.15
[4]; Sample 2
  IEF data Ovalbumin A1 %: 81.2%
  IEF data Ovalbumin A1 pI: 5.11
  IEF data Ovalbumin A2 + A3 %: 18.8%
  IEF data Ovalbumin A2 + A3 pI: 5.15

B3: Albumin powder: ovalbumin powder, process sample before grinding (protein, UniProt P01012 2-386, looked up)
Ovalbumin: GSIGAASMEFCFDVFKELKVHHANENIFYCPIAIMSALAMVYLGAKDSTRTQINKVVRFDKLPGFGDSIEAQCGTSVNVHSSLRDILNQITKPNDVYSFSLASRLYAEERYPILPEYLQCVKELYRGGLEPINFQTAADQARELINSWVESQTNGIIRNVLQPSSVDSQTAMVLVNAIVFKGLWEKAFKDEDTQAMPFRVTEQESKPVQMMYQIGLFRVASMASEKMKILELPFASGTMSMLVLLPDEVSGLEQLESIINFEKLTEWTSSNVMEERKIKVYLPRMKMEEKYNLTSVLMAMGITDVFSSSANLSGISSAESLKISQAVHAAHAEINEAGREVVGSAEAGVDAASVSEEFRADHPFLFCIKHIATNAVLFFGRCVSP
modifications: powder
notes: ovalbumin powder, process sample before grinding
[4]; Sample 1
  IEF data Ovalbumin A1 %: 80.9%
  IEF data Ovalbumin A1 pI: 5.10
  IEF data Ovalbumin A2 + A3 %: 19.1%
  IEF data Ovalbumin A2 + A3 pI: 5.14
[4]; Sample 2
  IEF data Ovalbumin A1 %: 82.2%
  IEF data Ovalbumin A1 pI: 5.09
  IEF data Ovalbumin A2 + A3 %: 17.8%
  IEF data Ovalbumin A2 + A3 pI: 5.14
